Among the data in article PMC12432892, “Therapeutic applications of interface-mimicking peptides for targeting the SARS-CoV-2 NSP12-NSP8 RdRp complex” (Molecular Therapy, 2025) are IC50 of inhibition of SARS-CoV-2 RdRp activity in the cell-based minigenome (luciferase) assay; pair blocked: NSP12-NSP8 values, retold here.

The assay addresses SARS-CoV-2 NSP12 (SARS-CoV-2), P0DTD1.

B1: N8-Pepα (peptide)
chain: NDALNNIINNARDGCVPLNIIPLTTA
modifications: not checked
On to B1, for which the IC50 of inhibition of SARS-CoV-2 RdRp activity in the cell-based minigenome (luciferase) assay; pair blocked: NSP12-NSP8 was 8 µM.
